From publication PMC6683420 (BMC Molecular and Cell Biology, 2019)

Columns and labels:
human CD40 [1] = molecular target: T1, human CD40 (human, UniProt P25942); assay: cell-based or functional assay
human CD40 [2] = molecular target: T1, human CD40; assay: cell-based or functional assay; remark: listed apart in the source

T1 sequence (P25942 21-277): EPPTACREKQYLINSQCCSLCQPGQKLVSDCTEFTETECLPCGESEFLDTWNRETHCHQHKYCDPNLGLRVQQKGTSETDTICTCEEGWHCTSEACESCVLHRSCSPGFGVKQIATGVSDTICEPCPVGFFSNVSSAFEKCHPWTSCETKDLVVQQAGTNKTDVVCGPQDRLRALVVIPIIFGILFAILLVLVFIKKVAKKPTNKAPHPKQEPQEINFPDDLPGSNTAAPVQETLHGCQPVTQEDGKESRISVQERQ

| Binder | EC50 of antagonist activity in the CD40-dependent NF-kB SEAP reporter assay (HEK-293 transfected with human CD40, stimulated with recombinant CD40L); blocks m8 with m7 (human CD40 [1]) [nM] | EC50 of inhibition of CD86 upregulation on primary human B cells stimulated with CD40L-expressing Jurkat cells; blocks m8 with m7 (human CD40 [1]) [nM] | Antagonist: Jurkat/ Reporter assay IC50 nM; blocks m8 with m7 (human CD40 [2]) [nM] | Agonist: huCD40 reporter assay IC50 (human CD40 [2]) [nM] |
| --- | --- | --- | --- | --- |
| ABBV-323 (ravagalimab), human IgG1/κ anti-CD40 antagonist mAb (antibody, V domains shown) VH: EVQLVESGGGLVKPGGSLRLSCAASGFTFSDYGMNWVRQAPGKGLEWIAYISSGRGNIYYADTVKGRFTISRDNAKNSLYLQMNSLRAEDTAVYYCARSWGYFDVWGQGTTVTVSS VL: DIVMTQSPDSLAVSLGERATINCKSSQSLLNRGNQKNYLTWFQQKPGQPPKLLIYWASTRESGVPDRFSGSGSGTDFTLTISSLQAEDVAVYYCQNDYTYPLTFGQGTKLEIK | 3.7 | 0.6 | 3.1 | – |
| FAB516, anti-CD40 agonist antibody variant of ABBV-323 (antibody, V domains shown) VH: EVQLVESGGGLVKPGGSLRLSCAASGFTFSDYGMNWVRQAPGKGLEWVSYISSGRSNIYYADTVKGRFTISRDNAKNSLYLQMNSLRAEDTAVYYCARSWGYFDVWGQGTTVTVSS VL: DIVMTQSPDSLAVSLGERATINCKSSQSLLNLGNQKNYLTWFQQKPGQPPKLLIYWASTRESGVPDRFSGSGSGTDFTLTISSLQAEDVAVYYCQNDYTYPLTFGQGTKLEIK | – | – | – | 157 |
